Target: FANCI (human, UniProt Q9NVI1 1-1328)
Assay: EMSA

Chain of FANCI (Q9NVI1 whole entry): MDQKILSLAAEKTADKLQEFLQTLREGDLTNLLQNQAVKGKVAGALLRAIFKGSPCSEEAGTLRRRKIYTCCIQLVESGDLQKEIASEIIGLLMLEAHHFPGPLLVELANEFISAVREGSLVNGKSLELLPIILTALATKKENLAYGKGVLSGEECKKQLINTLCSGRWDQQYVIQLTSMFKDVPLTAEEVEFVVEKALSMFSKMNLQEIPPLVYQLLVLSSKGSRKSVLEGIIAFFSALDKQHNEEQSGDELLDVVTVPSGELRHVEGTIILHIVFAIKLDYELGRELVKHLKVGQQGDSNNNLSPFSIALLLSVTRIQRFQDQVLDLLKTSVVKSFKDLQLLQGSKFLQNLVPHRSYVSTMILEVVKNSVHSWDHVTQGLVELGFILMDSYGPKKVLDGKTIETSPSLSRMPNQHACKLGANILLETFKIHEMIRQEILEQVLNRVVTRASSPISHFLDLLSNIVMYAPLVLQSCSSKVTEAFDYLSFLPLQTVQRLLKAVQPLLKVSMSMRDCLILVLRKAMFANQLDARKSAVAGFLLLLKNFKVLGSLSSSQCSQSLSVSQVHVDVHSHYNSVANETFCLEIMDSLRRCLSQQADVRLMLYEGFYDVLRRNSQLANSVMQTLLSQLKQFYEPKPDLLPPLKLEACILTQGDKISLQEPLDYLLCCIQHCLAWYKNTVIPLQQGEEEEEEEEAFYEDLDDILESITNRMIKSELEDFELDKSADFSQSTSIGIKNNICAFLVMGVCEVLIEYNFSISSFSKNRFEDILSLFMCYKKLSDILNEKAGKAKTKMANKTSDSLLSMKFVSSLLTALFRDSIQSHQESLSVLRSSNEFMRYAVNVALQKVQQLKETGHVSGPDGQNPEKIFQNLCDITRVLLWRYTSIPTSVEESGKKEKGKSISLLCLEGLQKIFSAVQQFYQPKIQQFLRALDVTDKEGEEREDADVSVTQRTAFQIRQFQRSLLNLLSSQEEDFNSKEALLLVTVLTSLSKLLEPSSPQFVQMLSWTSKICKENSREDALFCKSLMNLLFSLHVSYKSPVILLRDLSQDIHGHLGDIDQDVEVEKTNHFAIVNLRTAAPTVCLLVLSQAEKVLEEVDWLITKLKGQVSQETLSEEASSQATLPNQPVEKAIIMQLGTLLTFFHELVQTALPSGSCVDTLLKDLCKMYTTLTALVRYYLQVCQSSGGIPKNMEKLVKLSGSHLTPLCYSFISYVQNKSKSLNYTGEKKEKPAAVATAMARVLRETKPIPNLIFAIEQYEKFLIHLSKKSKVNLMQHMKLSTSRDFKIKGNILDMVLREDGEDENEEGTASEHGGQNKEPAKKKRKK

B1: Splayed arm (O2+O9) (structured_DNA)
DNA 1: AAAAAAAAAAAAAAAAAAAAAAAAAAAAAAAAAAAAAAAAGTAGAGTCGACGGTGCTGGGATCCAACATGTTTTCAATCTG
DNA 2: CAGATTGAAAACATGTTGGATCCCAGCACCGTCGACTCTACAAAAAAAAAAAAAAAAAAAAAAAAAAAAAAAAAAAAAAAA
B1: binds.
